Data as given in the nanobody polyreactivity screen of Harvey et al. (2022).

Assay: yeast display, Sf9 membrane polyspecificity reagent, FACS + sequencing; frameworks hold sequencing errors
Outline: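 Nanobodies from a synthetic yeast display library (Saccharomyces cerevisiae BJ5465), induced 36–48 hours with galactose, were stained 1 hour at 4 °C with 10% biotinylated, detergent-solubilized Sf9 membrane reagent, enriched on streptavidin microbeads, then FACS-sorted. Anti-HA (expression) and streptavidin (reagent binding) fluorescence set low and high (top ~1%) gates. Polyreactivity labels come from the gate of origin. Genes were colony-PCR amplified, MiSeq 2 × 250 sequenced and filtered by CDR length.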

Row | Sequence | polyreactivity (PSR sort gate)
1 | QVQLVESGGGLVQAGGSLRLSCAASGYILRNAMGWYRQAPGKERELVAAIRFRGGSTSYADSVKGRFTISRYNAKNTVYLQMKSLKPEDTAVYYCNALWWVIRPYQRHDYWGQVTQVTVSS | low polyreactivity
2 | QVQLVESGGGLVQAGGSLRLSCAASGYILRRNAMGWYRQAPGKERELVARINSSGGSTYYADSVKGRFTISRDNAKNTVYLQMNSLKPEDTAVYYCAKSYYRGRDYWGQGTQVTVSS | high polyreactivity
3 | QVQLVESGGGLVQAGGSLRLSCAASGYILYANTMGWYRQAPGKERELVAAISGGGSTNYADSVKGRFTISRDNAKNTVYLQMNSLKPEDTAVYYCAVKTNQAGYDYWGQGTQVTVSS | low polyreactivity
4 | QVQLVESGGGLVQAGGSLRLSCAASGYISNANAMGCYRQAPGKERELVAAITWSGGSTYADSVKGRFTITRDNAKNTVYLQMNSLKPEDTAVYYCAVGPYRVAKYNYWGQGTQVTVSS | low polyreactivity
5 | QVQLVESGGGLVQAGGSLRLSCAASGYISYYYAMGWYREAPGKEREFVAGISWSGGSTYYADPVKGRFTISRDNAKNTVYLQMNSLKPEDTAVYDCAARLSRWWPPTGVHYSDRYYGGQGTQVTVSS | high polyreactivity
6 | QVQLVESGGGLVQAGGSLRLSCAASGYISYYYAMGWYRQAPGKEREFVAGISWSGGSTYYADPVKGRFTISRDNAKNTVYLQMNSLKTEDTAVYYCAARLSRWWPPTRVHYTDRYYWGQGTQVTVSS | high polyreactivity
7 | QVQLVESGGGLVQAGGSLRLSCAASGYLIGGNAMGWYRQAPGKERELVAVISSRAGRTYYADSVKGRFTISRDNAKNTVYLQMNSLKPEDTAVYYCNRVFSYQYKRDYWGQGTQVTVSS | high polyreactivity
8 | QVQLVESGGGLVQAGGSLRLSCAASGYMGWYRQAPGKERELVATISGSGGSTYYADSVKGRFTISRDNAKNTVYLQMNSLKPEDTAVYYCTTEIWGVNRSGYDYWGQGTQVTVSS | low polyreactivity
9 | QVQLVESGGGLVQAGGSLRLSCAASGYNFDHYAMGWYRQAPGKERELVAAISRSAGSTYYADSVKGRFTISRDNAKNTVYLQMTSLKTEDTAVYYCNTVFRWIDRVLGYEYWGQGTQVTVSS | high polyreactivity
10 | QVQLVESGGGLVQAGGSLRLSCAASGYNFYGYAMGWYRLAPGKERELVAAITVRGGSTYYADSVKGRFTISRDNAKNTVYLQMNCQKPEETAVYYCAAAPQFTFGVGYWGQGTQVTVSS | low polyreactivity
11 | QVQLVESGGGLVQAGGSLRLSCAASGYSFSYYAMGWSRQAPGKERELVAAISWSGGSTYYADSVKGRFTISRDNAKNTVYLQMNRLKPEDTAVYYCATEVVAYRRYSAYGYWGQGTQVTVSS | high polyreactivity
12 | QVQLVESGGGLVQAGGSLRLSCAASGYTDYAMGWYRQAPGKERELVATITSGDNTNYADSVKGRFTISRDNAKNTVDLQMNSLKPEDTAVYYCAAEYGMHYGIDYWGQGTQVTVSS | low polyreactivity
13 | QVQLVESGGGLVQAGGSLRLSCAASGYTFAYYVMGWYRQAPGKERELVATIRSRAGRTYYADSVKERFTISRDNAKNTVYLQMNSLKPEDTAVYYCAAGWYYTYDYWGQGTQVTVSS | high polyreactivity
14 | QVQLVESGGGLVQAGGSLRLSCAASGYTFAYYVMGWYRQAPGKERELVATIRSRAGRTYYADSVKGRFTISRDNAKNTVYLQLNSLKPEDTAVYYCAAGWYYTYDYWGQGTQVTVSS | high polyreactivity
15 | QVQLVESGGGLVQAGGSLRLSCAASGYTFDKYAMGWYRPAPGKERELVAAITDGGSTNYADSVKGRFTISRDNAKNTVYLQMNSLKPEDTAVYYCNDELQWEVYYDRYPEYDHWGQGTQVTVSS | low polyreactivity
16 | QVQLVESGGGLVQAGGSLRLSCAASGYTFDKYVMGWYRQAPGKERELVAAISRSGGRTYYADSVKGRFTISRDNAKNTVYLQMNSLKPEDTAVYYCNALWFYNGLSYEYWGQGTQVTVSS | high polyreactivity
17 | QVQLVESGGGLVQAGGSLRLSCAASGYTFDQYAMGWYRQAPGKERELVAGIDSAGSTYYADSVKGRFTISRDNAKITVYLQMNSLKPEDTAVYYCNADDLNTEVPYYYWGQGTQVTGSS | low polyreactivity
18 | QVQLVESGGGLVQAGGSLRLSCAASGYTFDYYAMGWYRQAPGKERELVAAISGSGSRTYYADSVKGRFTISRDNAKNTVYFQMNSLKPEDTAVYYCAAEYYYSDAGNYWGQGTQVTVSS | high polyreactivity
19 | QVQLVESGGGLVQAGGSLRLSCAASGYTFEAYAMGWYRQAPGKERELVAAINYSGGSTYADSVKGRFTISRDNAKNTVYLQMNSLKPEDTAVYYCAAYGTKRYPYDYWGQGTQVTVSS | low polyreactivity
20 | QVQLVESGGGLVQAGGSLRLSCAASGYTFENYVKGWYSQAPGKERELVAAISSRGGSTYYADSVKGRFTISRDNAKNTVYLQMNSLKPEDTAVYYCAARARQTGPYRSRYNYWGQGTQVTVSS | high polyreactivity
21 | QVQLVESGGGLVQAGGSLRLSCAASGYTFFFNVMGWYRQAPGKERELVAAISYSGGSTNYADSVKGRFTISRDNAKNTVYLQMNSLKPEDTAVYYCNARTVSRNGYQDDYWGQGTQVTVSS | low polyreactivity
22 | QVQLVESGGGLVQAGGSLRLSCAASGYTFFLNAMGWYRPAPGNERELVAVITNVGSTYYADSVKGRFTISRDNAKNTVYLQMHSLKPEDTAVYYCAAEYLAYYSGYDYWGQGTQVTVSS | high polyreactivity
23 | QVQLVESGGGLVQAGGSLRLSCAASGYTFFYAMAWYRQAPGKERELVASITSAASTTYADSVKGRFSISRDNAKNTVYLQMNSLKPEDTAVYYCAASHSWWFYPGYYYWGQGTQVTVSS | high polyreactivity
24 | QVQLVESGGGLVQAGGSLRLSCAASGYTFGANVMGWYRQAPGKERELVAAINTRGSRTYYADSVNGRFTISRDNAKNTVYLQMNSLKPEDTAVYYCAAALRKEYDYWGQGTQVTVSS | high polyreactivity
25 | QVQLVESGGGLVQAGGSLRLSCAASGYTFGFYAMGWYRQAPGKERELVAAISRSGGRTYYADSVKGRFTISRDNAKNTVYLQMNSLKPEDTAVYYCAAYQYGMDYWGQGTQVTVSS | high polyreactivity
26 | QVQLVESGGGLVQAGGSLRLSCAASGYTFGFYGMGWYRQAPGKERDLVAAISRSGGGSTYYADSVKGRFTISRDNAKNTVYLQMNSLKPEDTAVYYCNRDFDDEMWGQGTQVTVSS | low polyreactivity
27 | QVQLVESGGGLVQAGGSLRLSCAASGYTFGQNAMGWYRQAPGKEREFVAAISWSGTSTYYADSVKGRFTISRDNAKNTVYLQMNSLKPEDTALYYCAARSYRYVSRREYWGQGTQVTVSS | high polyreactivity
28 | QVQLVESGGGLVQAGGSLRLSCAASGYTFGSNVMGWYRQAPGKERELVAAITFSGGSTYYADSVKRRFTISRDNAKNTVFLLMIRLKPEDTAVYYCAVRYVRYYAWYYYWGQGTQVTVSS | high polyreactivity
29 | QVQLVESGGGLVQAGGSLRLSCAASGYTFGWYAMGWYRQAPGTERELVAGISSAGSTNYADSVKGRFTISRDNAKNTVYLQMNSLKPEDTAVYYCARDKWGLRYAPTVDYWGQGTQLTVSS | high polyreactivity
30 | QVQLVESGGGLVQAGGSLRLSCAASGYTFGYNALGWYRQAPGKERELVAAISNGGSTNYADSVKGRFTISRDNAKNTVYLQMNSLKPEDTAVYYCAAASRLHIGYWRYDFWGQGTQVTVSS | low polyreactivity
